Our source for the stoichiometry N values is PMC10627512.

The target of the assay is HipB of the E. coli O127:H6 HipBST toxin-antitoxin system (E. coli O127:H6) (UniProt P23873). As to the kind of experiment: crystal structure.

One may read the stoichiometry N as the number of molecules, sites or subunits per partner or assembly.

“HipB of the E. coli O127:H6 HipBST toxin-antitoxin system (from UniProt P23873 1-88) (natural protein)” yielded a stoichiometry N of 2.
